Assay results from patent US20260258141A1 (BIOCYTOGEN PHARMACEUTICALS BEIJING, published 2026).
Residue numbers refer to the chain shown, from its start.

B1: anti-IGF1R antibody 12A4 (antibody, V domains shown)
VH: EVQLVQSGGGEIRPGGSLRLSCAASGFTFADYGMSWVRQAPGEGLEWVSEIDWTGGSKLYADSVKGRFTISRDNAKNSLFLQMNSLRAEDTALYYCVRDRGAVSPKYYYYGMDVWGQGTTVTVSS
VL: EIVLTQSPSSLSASVGDRVTITCRASQGIRNDLGWYQQKPGKAPKRLIYAASRLQSGVPSRFSGSGSGTDFTLTISSLQPEDFATYYCLQHNSYPYTFGQGTKLEIK
B2: anti-IGF1R antibody 10G1 (antibody, human IgG1, V domains shown)
VH: QVQLVESGGGLVKPGGSLRLSCAASEFTFSDYYMSWIRQSPGKGLEWVSYISNSGSFTNYADSVKGRFTISRDNAKNSLYLQMNSLRAEDSAIYYCVRDQAPVTSKYYYYGMDVWGQGTTVTVSS
VL: B1 VL with L33F, G34A, S56R, D70E
B3: anti-IGF1R antibody 10D1 (antibody, human IgG1, V domains shown)
VH: QVQLQQSGGGVVRPGGSLRLSCAASGFTFADYGMSWVRQVPGKGLEWVSGINWNGGSTDYADSVKGRFTISRDNAKHSLYLQMNSLRAEDTAFYYCARDRGAVSRRYYYYGMDVWGLGTTVTVSS
VL: B1 VL with E1A, V3Q, G28D, Q38L, R61G, D70E
B4: anti-IGF1R antibody 12D1 (antibody, human IgG1, V domains shown)
VH: B3 VH with Q5V, Q6E, A30D, D73E, N74K, H77N, F93L, A97V, S104T, L117Q
VL: B1 VL with E1D, V3Q, L4M, G28D, Q38L, D70E

Each binder was assayed against T1, human insulin receptor INSR on cells (human, UniProt P06213 28-1382) (assay: flow cytometry on CHO-S-hINSR cells).
T1 construct: Expressed on CHO-S cells; also called hINSR; CHO-S-hINSR cells
T1 sequence (P06213 other isoform, or with tags, fused parts or gaps limits assumed): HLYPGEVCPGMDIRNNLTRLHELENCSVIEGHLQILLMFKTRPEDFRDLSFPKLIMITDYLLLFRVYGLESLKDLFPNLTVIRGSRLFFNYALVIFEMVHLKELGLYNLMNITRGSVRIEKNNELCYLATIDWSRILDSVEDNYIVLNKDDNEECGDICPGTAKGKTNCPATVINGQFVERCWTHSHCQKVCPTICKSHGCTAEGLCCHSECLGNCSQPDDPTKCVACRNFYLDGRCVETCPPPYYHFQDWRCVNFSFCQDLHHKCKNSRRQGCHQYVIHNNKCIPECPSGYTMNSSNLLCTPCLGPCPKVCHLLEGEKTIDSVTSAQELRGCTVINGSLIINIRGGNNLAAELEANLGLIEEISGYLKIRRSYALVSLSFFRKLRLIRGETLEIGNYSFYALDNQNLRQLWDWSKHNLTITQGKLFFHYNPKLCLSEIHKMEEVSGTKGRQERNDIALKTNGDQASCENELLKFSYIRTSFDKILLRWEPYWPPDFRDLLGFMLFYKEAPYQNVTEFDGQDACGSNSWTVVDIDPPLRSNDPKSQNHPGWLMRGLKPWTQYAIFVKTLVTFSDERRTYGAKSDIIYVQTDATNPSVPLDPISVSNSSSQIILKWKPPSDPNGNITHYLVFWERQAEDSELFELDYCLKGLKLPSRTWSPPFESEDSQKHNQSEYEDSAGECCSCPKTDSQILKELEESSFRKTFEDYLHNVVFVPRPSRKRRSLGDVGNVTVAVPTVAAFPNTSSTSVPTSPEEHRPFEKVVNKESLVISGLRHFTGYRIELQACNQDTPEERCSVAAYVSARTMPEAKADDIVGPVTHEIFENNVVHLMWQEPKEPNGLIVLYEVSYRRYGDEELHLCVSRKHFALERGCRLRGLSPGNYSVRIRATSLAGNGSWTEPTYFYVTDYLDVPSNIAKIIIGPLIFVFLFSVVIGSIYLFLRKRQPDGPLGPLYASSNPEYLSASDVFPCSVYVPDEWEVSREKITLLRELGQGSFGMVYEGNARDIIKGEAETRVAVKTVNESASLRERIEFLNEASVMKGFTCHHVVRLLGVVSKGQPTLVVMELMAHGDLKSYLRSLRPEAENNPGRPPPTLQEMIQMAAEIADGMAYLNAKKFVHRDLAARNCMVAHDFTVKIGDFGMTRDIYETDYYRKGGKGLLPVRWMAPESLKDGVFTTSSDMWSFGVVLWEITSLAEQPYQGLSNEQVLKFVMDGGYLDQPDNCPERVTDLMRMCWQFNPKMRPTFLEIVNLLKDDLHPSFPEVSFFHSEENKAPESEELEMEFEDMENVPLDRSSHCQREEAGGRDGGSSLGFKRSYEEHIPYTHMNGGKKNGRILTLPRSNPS
Protocol: (§1) INSR (insulin receptor) and IGF1R are both members of the superfamily of receptor tyrosine kinases (RTKs). The binding activity of anti-IGF1R antibodies to human IGF1R, human INSR and monkey IGF1R was verified by flow cytometry. Briefly, CHO-S-hIGF1R cells (expressing human IGF1R (SEQ ID NO: 45), CHO-S-fasIGF1R cells (expressing cynomolgus monkey IGF1R (SEQ ID NO: 46) and CHO-S-hINSR (expressing SEQ ID NO: 47) were plated in a 96-well plate at a density of 2×10⁵ cells/well respectively. Purified anti-IGF1R antibody with a concentration of 20 μg/mL was added to each well and was incubated at 4° C. for 30 minutes. Then, after one wash with PBS, the cells were incubated with the secondary antibody Alexa Fluor® 647 anti-human IgG Fcγ (Jackson ImmunoResearch Laboratories, Inc., Cat #: 109-606-170) at 4° C. for 15 minutes before flow cytometry analysis. Human IgG1 was used as ISO control.

Binder	binding result
B1	no binding (tested: 20 µg/mL)
B2	no binding (tested: 20 µg/mL)
B3	no binding (tested: 20 µg/mL)
B4	no binding (tested: 20 µg/mL)

The binders below were run against T1, human insulin receptor INSR on cells (assay: flow cytometry on CHO-S-hINSR cells, antibody 20 µg/mL).
Protocol: as §1

Binder	Percentage of positive cells [%]
B1	0.4
B2	0.7
B3	1.5
B4	0.5

The binders below were run against His-tagged cynomolgus monkey IGF1R protein (ACRO Biosystems Inc., Cat #: IGR-C5225) (cynomolgus monkey) (assay: SPR (Biacore 8K), antibody captured on Protein A chip, antigen as analyte, 1:1 model).

Binder	Kd [nM]	koff [s⁻¹]	kon [M⁻¹ s⁻¹]
B1	0.568	1.05e-05	18400
B2	8.57	0.000237	27600
B3	2.1	1.75e-05	8360
B4	2.79	1.8e-05	6450

These binders were tested against T2, His-tagged human IGF1R protein (ACRO Biosystems Inc., Cat #: IGR-H5229) (human, UniProt P08069 31-932) (assay: blocking ELISA on coated hIGF1R-His; blocked ligand: biotinylated human IGF-I).
T2 construct: Bought protein; also called hIGF1R-His; not shown: His tag
T2 sequence (P08069 31-932): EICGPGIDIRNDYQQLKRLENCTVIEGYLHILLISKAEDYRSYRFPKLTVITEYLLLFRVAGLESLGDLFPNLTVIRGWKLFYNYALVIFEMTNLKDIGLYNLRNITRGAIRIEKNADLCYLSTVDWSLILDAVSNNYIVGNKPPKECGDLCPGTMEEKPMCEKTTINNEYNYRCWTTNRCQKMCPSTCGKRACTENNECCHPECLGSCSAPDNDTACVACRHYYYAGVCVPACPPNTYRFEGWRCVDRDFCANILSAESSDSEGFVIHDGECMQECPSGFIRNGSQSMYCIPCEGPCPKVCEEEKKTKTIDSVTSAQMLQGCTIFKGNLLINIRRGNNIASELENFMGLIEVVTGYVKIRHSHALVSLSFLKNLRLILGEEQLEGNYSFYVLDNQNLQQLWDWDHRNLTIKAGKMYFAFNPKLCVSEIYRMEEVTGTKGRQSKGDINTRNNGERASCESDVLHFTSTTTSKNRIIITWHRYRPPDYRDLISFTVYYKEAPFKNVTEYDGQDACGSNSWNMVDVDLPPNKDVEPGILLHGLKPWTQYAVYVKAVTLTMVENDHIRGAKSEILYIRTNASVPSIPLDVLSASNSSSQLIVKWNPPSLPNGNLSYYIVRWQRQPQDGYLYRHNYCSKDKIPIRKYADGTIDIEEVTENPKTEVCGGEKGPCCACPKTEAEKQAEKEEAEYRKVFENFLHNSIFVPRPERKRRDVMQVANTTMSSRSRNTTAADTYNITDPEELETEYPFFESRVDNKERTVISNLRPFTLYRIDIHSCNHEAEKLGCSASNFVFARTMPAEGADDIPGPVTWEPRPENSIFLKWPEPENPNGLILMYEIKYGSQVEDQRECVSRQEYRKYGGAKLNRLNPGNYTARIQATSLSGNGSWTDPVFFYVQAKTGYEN
Protocol: Blocking assays were performed to determine whether the anti-IGF1R antibodies can block the binding between IGF1R and its ligand IGF-1 and IGF-2. Specifically, the microwell plates were coated with 100 μl/well of 5 μg/mL hIGF1R-His in pH 9.6 carbonate buffer, overnight at 4° C. Plates were blocked with at 200 μl/well of 1% bovine serum albumin and incubated at 37° C. for 2 hours. Serially diluted anti-IGF1R antibodies (0.005-10 μg/mL in 3-fold serial dilution plus buffer blank) were added to the plates at 100 μL/well. After a 1.5-hour incubation, Biotinylated Human IGF-I Protein (Acro Biosystems, Cat #: IG1-H82F7) or Biotinylated Human IGF-I Protein was replaced with Biotinylated Human IGF-II Protein (Acro Biosystems, Cat #: IG2-H82Q6) were added to the plates at 100 μL/well. After a 1.5-hour incubation at 37° C., HRP Streptavidin (Biolegend, Cat #: 405210) at 1:3000 dilution was added to the plates at 100 μL/well and incubated for 1 hour. Plates were washed 5 times and 100 μL of TMB was added to each well, and incubated for 10 minutes. 100 uL of 1M Phosphoric Acid was then added to each well and ELISA plates were read at 450/570 nm wavelength. A fitting curve was obtained using Log (antibody concentration (M)) as the X-axis and […] as the Y-axis.

Binder	IC50 [nM]	Max inhibition (%) (10 µg/mL)
B1	2	50
B2	1.6	43
B3	1.3	47
B4	2.2	55

What follows are binders tested against T2, His-tagged human IGF1R protein (ACRO …) (assay: SPR (Biacore 8K), antibody captured on Protein A chip, antigen as analyte, 1:1 model).
Protocol: The affinity of the anti-IGF1R antibodies to His-tagged human IGF1R protein (hIGF1R-His, ACRO Biosystems Inc., Cat #: IGR-H5229) and His-tagged cynomolgus monkey IGF1R protein (cIGF1R-His, ACRO Biosystems Inc., Cat #: IGR-C5225) were measured using surface plasmon resonance (SPR) using Biacore™ (Biacore, Inc., Piscataway N.J.) 8K biosensor equipped with pre-immobilized Protein A sensor chips.
Purified anti-IGF1R antibodies were captured on the Protein A chip (Series S Sensor Chip Protein A) for the detection. 1 μg/mL or 10 μg/mL purified anti-IGF1R antibodies was loaded at 10 μL/min to bind to a gradient concentration of recombinant hIGF1R-His or cIGF1R-His (400 nM, 200 nM, 100 nM, 50 nM, 25 nM, 12.5 nM, 6.25 nM, 3.125 nM). The flow rate was 30 μL/min, the binding and dissociation time were set to 180 s and 800 s or 1200 s, respectively. The chip was regenerated after the last injection of each titration with a glycine solution (pH 2.0) at 30 μL/min for 30 seconds.

Binder	Kd [nM]	koff [s⁻¹]	kon [M⁻¹ s⁻¹]
B1	0.214	5.69e-06	26600
B2	3.99	0.000162	40700
B3	1.63	1.26e-05	7750
B4	1.72	1.05e-05	6120

Each binder was assayed against T2, His-tagged human IGF1R protein (ACRO …) (assay: SPR (Biacore 8K) on captured hIGF1R-His, binder injected second (Analyte 2); competitor injected first (Analyte 1): 10G1).
Protocol: (§2) Epitope binding assays were performed using Biacore™ 8K biosensor to determine whether two anti-IGF1R antibodies target the same or overlapping epitopes. 1×HBS-EP+ buffer (10 mM 4-(2-hydroxyethyl)-1-piperazineethanesulfonic acid (HEPES), 150 mM NaCl, 3 mM ethylenediaminetetraacetic acid (EDTA) and 0.05% P20, pH7.4) diluted from HBS-EP+buffer (10×) was used as the running buffer throughout the experiment. About 50 RU of hIGF1R-His was captured at a flow rate of 10 μL/min, and 200 nM of the tested antibody (Analyte 1) was injected at a flow rate of 30 uL/min to bind the ligand. Another comparison antibody (Analyte 2) was injected under the same conditions to determine whether the binding of different antibodies interfered with each other. The binding time was 180 s for each antibody.
(§3) The binding value of each antibody was obtained using Biacore Insight Evaluation (Version: 2.0.15.12933). To quantify the interference of one antibody binding to another, a binding ratio was calculated to compare each pair of antibodies. The binding ratio is defined as the binding value of the second antibody (Analyte 2) divided by the binding value of the first antibody (Analyte 1). The threshold to determine the block or non-block is 0.3.

Binder	binding ratio (Analyte 2 / Analyte 1)
B1	-0.01
B2	-0.01
B3	0.02
B4	0

These binders were tested against T2, His-tagged human IGF1R protein (ACRO …) (assay: SPR (Biacore 8K) on captured hIGF1R-His, binder injected second (Analyte 2); competitor injected first (Analyte 1): 12A4).
Protocol: as §2, §3

Binder	binding ratio (Analyte 2 / Analyte 1)
B1	-0.01
B2	-0.03
B3	0.02
B4	0
